Data on 2 molecules can be found in patent publication US20240034776A1 (FUDAN UNIVERSITY, published 2024).

Assay [1] has as its target T1, NRP2 extracellular domain protein with hFc (Sino Biological) (UniProt O60462 21-864).
T1 chain: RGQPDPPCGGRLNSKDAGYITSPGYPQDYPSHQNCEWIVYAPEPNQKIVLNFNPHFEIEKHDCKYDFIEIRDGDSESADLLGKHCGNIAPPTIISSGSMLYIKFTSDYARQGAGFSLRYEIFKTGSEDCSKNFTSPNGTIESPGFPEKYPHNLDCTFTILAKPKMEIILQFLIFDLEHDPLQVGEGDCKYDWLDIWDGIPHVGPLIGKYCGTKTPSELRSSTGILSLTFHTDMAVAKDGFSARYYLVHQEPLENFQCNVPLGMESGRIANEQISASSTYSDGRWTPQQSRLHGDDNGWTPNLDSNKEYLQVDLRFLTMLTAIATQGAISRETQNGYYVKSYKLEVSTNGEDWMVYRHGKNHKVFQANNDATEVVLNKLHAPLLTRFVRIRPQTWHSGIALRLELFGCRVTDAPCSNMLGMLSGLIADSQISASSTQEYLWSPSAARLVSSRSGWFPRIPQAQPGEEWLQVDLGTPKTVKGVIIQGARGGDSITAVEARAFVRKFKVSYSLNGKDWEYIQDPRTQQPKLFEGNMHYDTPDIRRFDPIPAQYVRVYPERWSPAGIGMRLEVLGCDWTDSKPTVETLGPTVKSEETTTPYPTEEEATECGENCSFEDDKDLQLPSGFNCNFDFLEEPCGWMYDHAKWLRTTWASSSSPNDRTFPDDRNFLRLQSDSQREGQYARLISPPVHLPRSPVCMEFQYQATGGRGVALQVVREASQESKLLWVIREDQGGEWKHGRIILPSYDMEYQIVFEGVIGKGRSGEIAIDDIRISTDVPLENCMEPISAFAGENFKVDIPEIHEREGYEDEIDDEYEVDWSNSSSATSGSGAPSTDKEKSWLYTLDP
The assay is described as follows: ELISA. (In general: In an ELISA, binding on a coated surface is turned into a signal by an enzyme label.)

Assay [2] deals with T2, CD3ε (Met1-Asp126) protein with hFc tag (Sino Biological) (UniProt P07766 22-126).
T2 chain: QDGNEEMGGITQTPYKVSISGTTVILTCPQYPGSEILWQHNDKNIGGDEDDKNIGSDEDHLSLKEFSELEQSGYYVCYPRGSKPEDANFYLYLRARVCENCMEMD
Put plainly: ELISA.

Assay [3] concerns the target T3, CD3E-human Fc protein (Sino Biological) (UniProt P07766 23-126).
T3 chain: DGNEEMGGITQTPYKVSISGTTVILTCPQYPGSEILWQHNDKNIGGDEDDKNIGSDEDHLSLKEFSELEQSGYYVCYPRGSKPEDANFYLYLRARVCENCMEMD
The assay is described as follows: BLI (Octet). A general note: Biolayer interferometry detects binding as a change in optical thickness at a sensor tip.

The target in assay [4] is T4, HA-tagged CD3ε (expressed from pcDNA3.1 in transfected HCT116 cells) (human, UniProt P07766 23-207).
T4 construct: whole, on cells; also called CD3ε-HA; CD3E-HA; not shown: HA tag
Put plainly: flow cytometry on HCT116-CD3ε cells, 1-4 µg/ml protein, anti-6x-His-FITC. Background: In flow cytometry, cells or beads pass a laser one at a time.

Assay [5] concerns the target T5, P8 polypeptide with site 3 (L) mutated to alanine (human).
T5 construct: also called P8 L3A
T5 peptide: RLAEMEFEERKRAAE
The assay is described as follows: ELISA, peptide coated at 1 µg/ml.

For assay [6], the target named is T6, P8 polypeptide with site 7 (F) mutated to alanine (human).
T6 construct: also called P8 F7A
T6 peptide: RLLEMEAEERKRAAE
The assay is described as follows: ELISA, peptide coated at 1 µg/ml.

Assay [7] concerns the target T7, P8 polypeptide with site 10 (R) mutated to alanine (human).
T7 construct: also called P8 R10A
T7 peptide: RLLEMEFEEAKRAAE
Put plainly: ELISA, peptide coated at 1 µg/ml.

The target in assay [8] is T8, P8 polypeptide with site 1 (R) mutated to alanine (human).
T8 construct: also called P8 R1A
T8 peptide: ALLEMEFEERKRAAE
Put plainly: ELISA, peptide coated at 1 µg/ml, antibody at 1 µg/ml.

The target of assay [9] is T9, P8 polypeptide with site 2 (L) mutated to alanine (human).
T9 construct: also called P8 L2A
T9 peptide: RALEMEFEERKRAAE
The description is as above.

Assay [10] concerns the target T10, P8 polypeptide with site 4 (E) mutated to alanine (human).
T10 construct: also called P8 E4A
T10 peptide: RLLAMEFEERKRAAE
The description is as above.

In assay [11] the target is T11, P8 polypeptide with site 5 (M) mutated to alanine (human).
T11 construct: also called P8 M5A
T11 peptide: RLLEAEFEERKRAAE
The description is as above.

Assay [12] deals with T12, P8 polypeptide with site 6 (E) mutated to alanine (human).
T12 construct: also called P8 E6A
T12 peptide: RLLEMAFEERKRAAE
Described as above.

For assay [13], the target named is T13, P8 polypeptide with site 8 (E) mutated to alanine (human).
T13 construct: also called P8 E8A
T13 peptide: RLLEMEFAERKRAAE
The description is as above.

The target of assay [14] is T14, P8 polypeptide with site 9 (E) mutated to alanine (human).
T14 construct: also called P8 E9A
T14 peptide: RLLEMEFEARKRAAE
The description is as above.

The target of assay [15] is T15, P8 polypeptide with site 11 (K) mutated to alanine (human).
T15 construct: also called P8 K11A
T15 peptide: RLLEMEFEERARAAE
Described as above.

Assay [16] has as its target T16, P8 polypeptide with site 12 (R) mutated to alanine (human).
T16 construct: also called P8 R12A
T16 peptide: RLLEMEFEERKAAAE
The description is as above.

Assay [17] has as its target T17, P8 polypeptide with site 15 (E) mutated to alanine (human).
T17 construct: also called P8 E15A
T17 peptide: RLLEMEFEERKRAAA
The assay is described as above.

In the next assay the target is T18, ITPRIPL1 P8 polypeptide (human).
T18 construct: also called human ITPRIPL1 P8 polypeptide; polypeptide segment P8
T18 peptide: RLLEMEFEERKRAAE
The assay is described as follows: ELISA, peptides coated at 1 µg/ml, antibody at 1 µg/ml.

B1: ITPRIPL1-RBD recombinant protein (human ITPRIPL1 extracellular domain, 25-103 amino acids, C-terminal 6x-His and Myc tags, Cusabio, from yeast) (ligand)
chain: HPLMVSDRMDLDTLARSRQLEKRMSEEMRLLEMEFEERKRAAEQRQKAENFWTGDTSSDQLVLGKKDMGWPFQADGQEG
notes: also called IT1-RBD protein; ITPRIPL1-RBD-6x-His recombinant protein; not shown: 6x-His and Myc tags at the C terminus
In general, EC50 refers to the concentration needed to bring the measured effect to its halfway point. Read a low EC50 as higher potency in that assay. What is called Kd is the concentration at which binding is half-saturated. Higher therefore signals lower affinity. As for B1, the EC50 in assay [1] came out at 0.418 µg/mL; in assay [2] it was 0.255 µg/mL. In assay [3], this molecule showed a Kd of 318 nM. Also, the binding result in assay [4] is on record as “binds”.

B2: monoclonal antibody 13B7A6H3 (antibody, mouse IgG1, kappa, V domains shown)
VH: QVQLQQSGPELVKPGASVRMSCKTSGYTFTDYVISWVKQRPGQGLEWIGEIFPRTGSTYYNENFKATATLTADKSSNTAYMQLSSLTSEDSAAYFCAFITSVDWAMEYWGQGTSVTVSS
VL: DVVMTQTPLSLPVSLGDQASISCRSSESLVNSKGNTHLHWYLQKPGQSPKLLIYKVSNRFSGVPDRFSGSGSGTDFTLKISRVEAEDLGVYFCSQSTHAPYTFGGGTKLEIKR
notes: Mouse hybridoma monoclonal; also called 13B7A6H3 monoclonal antibody
With B2, the binding result was “no binding (tested: 1 µg/ml)” in assay [5]; “no binding (tested: 1 µg/ml)” in assay [6]; “no binding (tested: 1 µg/ml)” in assay [7]; “binds” in assay [8]; “binds” in assay [9]; “binds” in [10]. For the same molecule, the binding result in [11], in assay [12], in assay [13], in assay [14], in [15] and in assay [16] was “binds” each time. In addition, the binding result (in assay [17]; with ITPRIPL1 P8 polypeptide) was “binds” in each case.
